Measurements: publication PMC6853915 (Scientific Reports, 2019)

What was measured:
Details in all cases: both partners purified
[1] = target: T1, 17beta-hydroxysteroid dehydrogenase type 10 (human, UniProt Q99714 1-261); assay: SPR; cypD held on immobilised Ab(cypD); 100 nM 17β-HSD10 flowed for 7 min; 10 mM HEPES, 200 μg/ml BSA, 5 mM Na+, pH 7.4 or 7.8, with K+ (up to 140 mM), Mg2+ or Ca2+ (up to 2.5 mM) alone or K+ and Mg2+ combined; 25 °C; reference channel without cypD
T1 construct: the oligomeric state was not measured; also called 17β-HSD10; 17beta-hydroxysteroide dehydrogenase 10; source: bought: Fitzgerald, USA (human, recombinant)
T1 sequence (looked up): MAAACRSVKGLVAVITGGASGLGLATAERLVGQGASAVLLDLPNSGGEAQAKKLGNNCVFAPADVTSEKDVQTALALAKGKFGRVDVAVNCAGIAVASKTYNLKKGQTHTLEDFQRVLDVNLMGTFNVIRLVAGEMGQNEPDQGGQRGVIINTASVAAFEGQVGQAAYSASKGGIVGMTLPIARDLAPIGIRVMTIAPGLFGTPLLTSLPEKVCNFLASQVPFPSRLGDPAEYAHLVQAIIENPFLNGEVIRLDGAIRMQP

[2] = target: T2, amyloid-β peptide 1–40 (human, UniProt P05067 672-711); assay: SPR; cypD held on immobilised Ab(cypD); 17β-HSD10 (100 nM), Aβ1–40 or Aβ1–42 (50-1000 nM, mostly 500 nM) or their mixtures, incubated at 37 °C beforehand (1 hour; or Aβ alone 0-180 min, then 10 min with 17β-HSD10), flowed for 7 or 10 min; HEPES_FINAL (10 mM HEPES, 200 μg/ml BSA, 5 mM Na+, 15 mM K+, 0.1 mM Mg2+, pH 7.4); 25 °C
T2 construct: amyloid-β peptide, residues 1-40 (40 aa), human, cut product of the amyloid precursor protein; numbers count on: the Aβ peptide; The authors take it to stay monomeric under the conditions used; also called Aβ1–40; Aβ_(1–40); source: synthetic peptide; bought: AnaSpec, USA

[3] = target: T3, amyloid-β peptide 1–42 (human, UniProt P05067 672-713); assay: as above
T3 construct: amyloid-β peptide, residues 1-42 (42 aa), human, cut product of the amyloid precursor protein; numbers count on: the Aβ peptide; Incubated at 37 °C before injection; the authors take it to form oligomers of a size that was not measured; also called Aβ1–42; Aβ_(1–42); source: synthetic peptide; bought: AnaSpec, USA

Measured: binding result

T3 sequence (P05067 672-713): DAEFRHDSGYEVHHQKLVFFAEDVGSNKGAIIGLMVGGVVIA
T2 sequence (P05067 672-711): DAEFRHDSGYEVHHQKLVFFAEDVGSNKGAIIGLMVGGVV

B1: cyclophilin D (enzyme)
chain: not shown
notes: cyclophilin D (cypD), human, recombinant; Held on the chip through an immobilised antibody against cypD; also called cypD; source: bought: Fitzgerald, USA (human, recombinant)
binds: all assays above
